Patent US20200140562A1
Like-named read-outs stand apart in the source and are kept apart here. Blank lines part the entries; values can stand above or below the binder they belong to.

Experiments:
[1] = biological target: human OX40 on cells (CHO-hOX40, 293HEK-hOX40, Jurkat-hOX40, activated primary CD4+ T cells) (human) (UniProt P43489); experiment: flow cytometry, CHO-hOX40, 3.125 nM
[2] = biological target: human OX40 on cells (CHO-hOX40, 293HEK-hOX40, Jurkat-hOX40, activated primary CD4+ T cells) (human) (UniProt P43489); experiment: flow cytometry, CHO-hOX40, 6.25 nM
[3] = biological target: human OX40 on cells (CHO-hOX40, 293HEK-hOX40, Jurkat-hOX40, activated primary CD4+ T cells) (human) (UniProt P43489); experiment: flow cytometry, CHO-hOX40, 0.048828125 nM
[4] = biological target: human OX40 on cells (CHO-hOX40, 293HEK-hOX40, Jurkat-hOX40, activated primary CD4+ T cells) (human) (UniProt P43489); experiment: flow cytometry, CHO-hOX40, 0.024414063 nM
[5] = biological target: human OX40 on cells (CHO-hOX40, 293HEK-hOX40, Jurkat-hOX40, activated primary CD4+ T cells) (human) (UniProt P43489); experiment: flow cytometry, CHO-hOX40, 50 nM
[6] = biological target: human OX40 on cells (CHO-hOX40, 293HEK-hOX40, Jurkat-hOX40, activated primary CD4+ T cells) (human) (UniProt P43489); experiment: flow cytometry, CHO-hOX40, 0.78125 nM
[7] = biological target: human OX40 on cells (CHO-hOX40, 293HEK-hOX40, Jurkat-hOX40, activated primary CD4+ T cells) (human) (UniProt P43489); experiment: flow cytometry, CHO-hOX40, 12.5 nM
[8] = biological target: human OX40 on cells (CHO-hOX40, 293HEK-hOX40, Jurkat-hOX40, activated primary CD4+ T cells) (human) (UniProt P43489); experiment: flow cytometry, CHO-hOX40, 25 nM
[9] = biological target: human OX40 on cells (CHO-hOX40, 293HEK-hOX40, Jurkat-hOX40, activated primary CD4+ T cells) (human) (UniProt P43489); experiment: flow cytometry, CHO-hOX40, 0.390625 nM
[10] = biological target: human OX40 on cells (CHO-hOX40, 293HEK-hOX40, Jurkat-hOX40, activated primary CD4+ T cells) (human) (UniProt P43489); experiment: flow cytometry, CHO-hOX40, 100 nM
[11] = biological target: human OX40 on cells (CHO-hOX40, 293HEK-hOX40, Jurkat-hOX40, activated primary CD4+ T cells) (human) (UniProt P43489); experiment: flow cytometry, CHO-hOX40, 0.1953125 nM
[12] = biological target: human OX40 on cells (CHO-hOX40, 293HEK-hOX40, Jurkat-hOX40, activated primary CD4+ T cells) (human) (UniProt P43489); experiment: flow cytometry, CHO-hOX40, […]
[13] = biological target: human OX40 on cells (CHO-hOX40, 293HEK-hOX40, Jurkat-hOX40, activated primary CD4+ T cells) (human) (UniProt P43489); experiment: flow cytometry, CHO-hOX40, 0.09765625 nM
[14] = biological target: human OX40 on cells (CHO-hOX40, 293HEK-hOX40, Jurkat-hOX40, activated primary CD4+ T cells) (human) (UniProt P43489); experiment: flow cytometry, CHO-hOX40, 200 nM
[15] = biological target: human OX40 on cells (CHO-hOX40, 293HEK-hOX40, Jurkat-hOX40, activated primary CD4+ T cells) (human) (UniProt P43489); experiment: flow cytometry, activated CD4+ T cells, donor 2, 100 nM
[16] = biological target: human OX40_Fc (R&D Systems) (human) (UniProt P43489); experiment: BLI, IgG1 on tip, hOX40-Fc 50 nM, avid
Sequence of human OX40_Fc (R&D Systems) (human) (P43489 29-216): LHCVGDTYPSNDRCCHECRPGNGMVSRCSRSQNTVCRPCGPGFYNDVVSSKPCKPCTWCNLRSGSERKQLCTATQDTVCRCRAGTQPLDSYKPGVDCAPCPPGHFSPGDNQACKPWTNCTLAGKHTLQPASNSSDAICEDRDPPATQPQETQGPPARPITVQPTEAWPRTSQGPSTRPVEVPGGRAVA

[17] = biological target: human OX40 on cells (CHO-hOX40, 293HEK-hOX40, Jurkat-hOX40, activated primary CD4+ T cells) (human) (UniProt P43489); experiment: flow cytometry, CHO-hOX40, 100 nM blocker, competitor OX40L-hFc-fluorescein
[18] = biological target: human OX40_Fc (R&D Systems) (human) (UniProt P43489); experiment: BLI, IgG1 on tip, hOX40-Fc 50 nM, avid; remark: listed apart in the source
[19] = biological target: human OX40 on cells (CHO-hOX40, 293HEK-hOX40, Jurkat-hOX40, activated primary CD4+ T cells) (human) (UniProt P43489); experiment: flow cytometry, MFI on CHO-hOX40 over wild-type CHO
[20] = biological target: human OX40 on cells (CHO-hOX40, 293HEK-hOX40, Jurkat-hOX40, activated primary CD4+ T cells) (human) (UniProt P43489); experiment: flow cytometry, CHO-hOX40, 100 nM; remark: listed apart in the source
[21] = biological target: human OX40 on cells (CHO-hOX40, 293HEK-hOX40, Jurkat-hOX40, activated primary CD4+ T cells) (human) (UniProt P43489); experiment: flow cytometry, 293HEK-hOX40, 1.6 nM
[22] = biological target: human OX40 on cells (CHO-hOX40, 293HEK-hOX40, Jurkat-hOX40, activated primary CD4+ T cells) (human) (UniProt P43489); experiment: flow cytometry, 293HEK-hOX40, 200 nM
[23] = biological target: human OX40 on cells (CHO-hOX40, 293HEK-hOX40, Jurkat-hOX40, activated primary CD4+ T cells) (human) (UniProt P43489); experiment: flow cytometry, activated CD4+ T cells, donor 1, 100 nM
[24] = biological target: cyno OX40_Fc (Acro Biosystems) (cyno); experiment: BLI, IgG1 on tip, cyno OX40-Fc 100 nM, avid
[25] = biological target: human OX40 on cells (CHO-hOX40, 293HEK-hOX40, Jurkat-hOX40, activated primary CD4+ T cells) (human) (UniProt P43489); experiment: flow cytometry, MFI on CHO-hOX40 over wild-type CHO; remark: listed apart in the source
[26] = biological target: human OX40 on cells (CHO-hOX40, 293HEK-hOX40, Jurkat-hOX40, activated primary CD4+ T cells) (human) (UniProt P43489); experiment: cell-based or functional assay
[27] = biological target: human OX40 on cells (CHO-hOX40, 293HEK-hOX40, Jurkat-hOX40, activated primary CD4+ T cells) (human) (UniProt P43489); experiment: flow cytometry, 293HEK-hOX40, 40 nM
[28] = biological target: human OX40 on cells (CHO-hOX40, 293HEK-hOX40, Jurkat-hOX40, activated primary CD4+ T cells) (human) (UniProt P43489); experiment: flow cytometry, CHO-hOX40
[29] = biological target: human OX40 on cells (CHO-hOX40, 293HEK-hOX40, Jurkat-hOX40, activated primary CD4+ T cells) (human) (UniProt P43489); experiment: flow cytometry, 293HEK-hOX40, 8 nM
[30] = biological target: cyno OX40_Fc (Acro Biosystems) (cyno); experiment: BLI, IgG1 on tip, cyno OX40-Fc 100 nM, avid; remark: listed apart in the source

Sequence of human OX40 on cells (CHO-hOX40, 293HEK-hOX40, Jurkat-hOX40, activated primary CD4+ T cells) (human) (P43489 29-277): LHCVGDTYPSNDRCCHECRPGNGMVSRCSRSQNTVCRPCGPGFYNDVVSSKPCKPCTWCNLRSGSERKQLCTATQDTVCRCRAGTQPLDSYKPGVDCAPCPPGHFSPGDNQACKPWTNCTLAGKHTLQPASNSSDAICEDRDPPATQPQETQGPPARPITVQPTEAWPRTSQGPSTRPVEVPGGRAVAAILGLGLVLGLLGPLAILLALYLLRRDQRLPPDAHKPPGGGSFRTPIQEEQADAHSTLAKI

MFI [1]: 4150 MFI
MFI [2]: 6400 MFI
MFI [3]: 1560 MFI
MFI [4]: 1510 MFI
MFI [5]: 44100 MFI
MFI [6]: 2250 MFI
MFI [7]: 11900 MFI
MFI [8]: 22100 MFI
MFI [9]: 1890 MFI
MFI [10]: 93000 MFI
MFI [11]: 1680 MFI
MFI [12]: 2900 MFI
MFI [13]: 1590 MFI
MFI [14]: 216000 MFI
B1: IgG2 control (antibody, V domains shown)
VH: QLQLQKSGPGLVKPSETLSLTCTVSGFTFSNYAMGWIRQPPGKGLEWIGAISGSGGSTYYADSVKGRVTISVDTSKNQFSLKLSSVTAADTAVYYCARGGPGWYAADVWGQGTLVTVSS
VL: EIVLTQSPATLSLSPGERATLSCRASQSISSYLNWYQQKPGQAPRLLIYAASSLQSGIPARFSGSGSGTDFTLTISSLEPEDFAVYYCQQADLPAFAFGGGTKVEIKR

MFI [15]: 136000 MFI
Kd [16]: 0.25 nM
MFI [1]: 1.77e+06 MFI
MFI of OX40L signal on CHO-OX40 cells [17]: 25800 MFI
MFI [2]: 2.02e+06 MFI
MFI [3]: 49800 MFI
MFI [4]: 26700 MFI
MFI [5]: 2.34e+06 MFI
Kd [18]: 0.475 nM
Fold difference [19]: 2630 fold
CHO-OX40 binding intensity (MFI) [20]: 183000 MFI
MFI [21]: 650000 MFI
MFI [22]: 1.79e+06 MFI
MFI [6]: 600000 MFI
MFI [7]: 2.18e+06 MFI
MFI [8]: 2.24e+06 MFI
MFI [23]: 115000 MFI
Kd [24]: 5.17 nM
Fold difference [25]: 1700 fold
NFkB-Luc fold change in Jurkat stimulated by PHA+ anti-CD28 (fold over IgG4 control) [26]: 1.93
NFkB-Luc fold change in Jurkat stimulated by anti-CD3+ anti-CD28 (fold over IgG4 control) [26]: 1.77
MFI [27]: 1.8e+06 MFI
MFI [9]: 474000 MFI
CHO-OX40 binding intensity (MFI) [10]: 164000 MFI
MFI [10]: 2.5e+06 MFI
MFI [11]: 181000 MFI
MFI [12]: 1.25e+06 MFI
MFI [13]: 77600 MFI
EC50 [28]: 1.94 nM
MFI [14]: 2.64e+06 MFI
MFI [29]: 1.74e+06 MFI
Kd [30]: 4.96 nM
B2: Hu106-222, humanized IgG1 OX40 antibody (antibody, from another filing, V domains shown)
VH: QVQLVQSGSELKKPGASVKVSCKASGYTFTDYSMHWVRQAPGQGLKWMGWINTETGEPTYADDFKGRFVFSLDTSVSTAYLQISSLKAEDTAVYYCANPYYDYVSYYAMDYWGQGTTVTVSS
VL: DIQMTQSPSSLSASVGDRVTITCKASQDVSTAVAWYQQKPGKAPKLLIYSASYLYTGVPSRFSGSGSGTDFTFTISSLQPEDIATYYCQQHYSTPRTFGQGTKLEIK
